# Results reported in the nanobody polyreactivity screen of Harvey et al. (2022).
# Assay: yeast display, Sf9 membrane polyspecificity reagent, FACS + sequencing; frameworks hold sequencing errors
# Procedure, shortened: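 In a synthetic yeast display library (Saccharomyces cerevisiae BJ5465), nanobody expression was induced with galactose for 36–48 hours. FACS gates were set low and high (top ~1%) using anti-HA fluorescence for expression and streptavidin fluorescence for binding of the Sf9 membrane reagent. Each polyreactivity label is drawn from the gate of origin.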
row,Sequence,polyreactivity (PSR sort gate)
1,QVQLVESGGGLVQAGGSLRISCAASGRIFYVYAMGWYRQAPGKERELVAAISTGSPTYYADSVNGRFTISRDNAKNTVYLQMNSLKPEDTAVYFCATGSIHGDFWSFRHQYYYWGQGTQVTVSS,low polyreactivity
2,QVQLVESGGGLVQAGGSLRISCAASGRTFARYVMGWYRQAPGKERELVAAISGGGGSTYYADSVKGRLTISRDTAKNTVFLQMNSLKPAETAVYYCAAVPEGPNTGDDANGLDYWGQGTQVTVSS,low polyreactivity
3,QVQLVESGGGLVQAGGSLRISCAASGRTFGPYAMGWYRQAPGKERELGAAITSSGGSTYYADSVKGRFTISRDNAKNTVYLQMNSLKPEDTAVFYCNKLYWRQSLDYDYWGQGTQVTVSS,low polyreactivity
4,QVQLVESGGGLVQAGGSLRISCAASGRTFGRYTMGWYRQAPGKVRELVASISNTARTNYADSVKGRFTISRDNAKNTVYLQMNSLKPEDTAVYYCASGFVRYRGTRDYWGQGTQVTVSS,low polyreactivity
5,QVQLVESGGGLVQAGGSLRISCAASGRTFRHYAMGWYIQAPGKEREFVAAISRSGGSTRYADSVKGRFTISRDNAKNSVYLQMNSLKPEDTAVYYCAATSRSYNDYDYWGQGTQVTVSS,high polyreactivity
6,QVQLVESGGGLVQAGGSLRISCAASGRTFRKYGMGWYRQAPGKERELLAAITRSGDSTYYADSVKARFTISRDNAMNTVYLQMNSLKPEDTAVYYCNTDGPRTYDTWEYDYWGQGTQVTVSS,high polyreactivity
7,QVQLVESGGGLVQAGGSLRISCAASGRTFSRYAMGGYRQAPGTERELVAAISRRGSSTYYADSVKGRFTISRDNAKNTVYLQINSLKPEDTAVYYCNTVTFPYVPALYDYWGQGTQVTVSS,high polyreactivity
8,QVQLVESGGGLVQAGGSLRISCAASGRTFWKYVMGWYRQAPGKEMELVAVISRPAGSTYYADSVKGRFTISRDNAKNTVYLQRNSLKPEDTAVYYCDKRPKNKPVLGDYDHWGQGTQVTVSS,low polyreactivity
9,QVQLVESGGGLVQAGGSLRISCAASGRTFYWNAMGWYRQAPGKERELVASINGGGSTYYADSVKGRFTISRDNAKNTVYLQMNSLKPEDTAVYYCNAESYEFHRAWGDYDYWGQGTQVTVSS,low polyreactivity
10,QVQLVESGGGLVQAGGSLRISCAASGSIFDYYVMGWYRQATGKERELVAAISWSGASTYYADSVKGRCTISRDNAKNTVYLQMNSLKREDTAVYYCAAYYGVNNLIDYDYWGQGTQVTVSS,low polyreactivity
11,QVQLVESGGGLVQAGGSLRISCAASGSIFGDNAMGWYRHAPGKERELVAAITFSGGSTHYADSVKGRFTISRDTAKNTVYLQMNSLKPEDTAVYYCAKRWRYSKHVNYYYWGQGTQVTVSS,high polyreactivity
12,QVQLVESGGGLVQAGGSLRISCAASGSIFGWYAMGWYRPAPGKEREFVATISRRGGRTYYADSVKGRFTISRDNAKNTVYLQMNSLKQEDTAVYYCAANSVYKEDYWGQVTQVTVSS,high polyreactivity
13,QVQLVESGGGLVQAGGSLRISCAASGSIFHTYAMGWYRQAPGKERELVAAITVSGGDTYYADSVKGRFTISRDNAKNTVYLQMHSLKPEDTAVYYCAVDTTTSYTVEYDYWGQGTQVTVSS,low polyreactivity
14,QVQLVESGGGLVQAGGSLRISCAASGSIFPTYAMGWYRQAPGKERELVAAISGSGGSTYYADSVKGRFTISRDNAKNTVYFQINSLKPEDTAVYYCAVRRRRYHTYYRGYDNWGQGTQVTVSA,low polyreactivity
15,QVQLVESGGGLVQAGGSLRISCAASGSIFRIYAMGWYRQAPGKERELVAAISWTGGSTYYADSVKGRFSISRDNAKNTVYLQMNSMKPDDTAVYYCASRPRYKFSAYEYWGQGTQVTVSS,high polyreactivity
16,QVQLVESGGGLVQAGGSLRISCAASGSIFRWNAMGWYRQAPGKERELVAAINWSGGSTYYADSVKGRFTISRDNAKNTVYLQMNSLKPEDTAVYYCAVDYWSGITWVEYWGQGTQVTVSS,high polyreactivity
17,QVQLVESGGGLVQAGGSLRISCAASGSIFSRNAMGWYRQAPGKERELVAAITSGGSTYYADSVKGRFTISRDNAKNTVYLQMNSLKPEDTAVYYCAAVDYYGYVPEFGYWGQGTQVTVSS,low polyreactivity
18,QVQLVESGGGLVQAGGSLRISCAASGSIFYVYAMGLYRQAPGKERELVAAISRRGARTYYADSVKGRFTISRDNAKNTVYLQMNSLKPEDSAVYYCNADQYYTVGYSAEYEYWGQGTQVTVSS,low polyreactivity
19,QVQLVESGGGLVQAGGSLRISCAASGSTFFKNAMGWYRQAPGKERELVAAITWSGDRTYADSVKGRFTISRDNAKNTVYLQMNSLKPEDTAVYYCNVDITGYDDDYWGQGPQVTVSS,low polyreactivity
20,QVQLVESGGGLVQAGGSLRISCAASGSTFPYYAMGWYRQAPGKERELVAAISQNGGSTYYADSVKGRFTISRDNAKNTVYLQMNSLKPEDTAGYYCNRTARKLRTVHSSVVGLDYWGQGTQVTVSS,low polyreactivity
21,QVQLVESGGGLVQAGGSLRISCAASGSTFRYYAMGWYKQAPGKERELVAAITTSGGRTYYADSVKGRFTISRDNAKNTVYLQMNSLKPEDTAVYYCAIRYSTPYLTDNFLSGPGYYYWGQGSQVTVSS,high polyreactivity

row,Sequence,polyreactivity (PSR sort gate)
1,QVQLVESGGGLVQAGGSLRISCAASGSTFWNAMGWYRQAPGKERELVAAIRLSGGSTYYADSVKGRFTISRDNAKNTVYLQMNSLKPEDTAVYYCNSDVTFGYWEYDYWGQGTQVTVSS,low polyreactivity
2,QVQLVESGGGLVQAGGSLRISCAASGSTFYCYAMGWYRQAPGKERELVAAIRRNGDGTYYADSVKGRFTISRDNAKNTVYLQMNSLKPVDTAVYYCAARRFIPRFNYWGQGTQVTVSS,high polyreactivity
3,QVQLVESGGGLVQAGGSLRISCAASGSTFYKYDMGWYRQAPGKEREFVAVISRSGGNTYYADSVKGRFTISRDNAKNTVYLQMNSLKPEDTAVSYCAADNYPDEYDYWGQGTQVTVSS,low polyreactivity
4,QVQLVESGGGLVQAGGSLRISCAASGSTFYLYDMGWYRQAPGKERELVANITSGTSTTYADSVKVRFTISRDNAKNTVYLQMNSLKPEDTAVYYCNATYTSPEYDYWGQGTQVTVSS,low polyreactivity
5,QVQLVESGGGLVQAGGSLRISCAASGSTFYRYPMAWYRQAPGKERELVAAISGSGGRTYYADSVKGRFTISRDNAKNTVYLQMNSLKPEYTAVYYCATRFGQRSDYWGQGTQVTVSS,high polyreactivity
6,QVQLVESGGGLVQAGGSLRISCAASGSTFYYNAMGWYRQAPGKERELVAAISYSGGRTYYADSLTGRFTISRDNAKNTVYLQMNSLKPEDTAVYYCATGQPILALRYAYGYWGQGTQVTVSS,low polyreactivity
7,QVQLVESGGGLVQAGGSLRISCAASGSTVRYYAMGWNRQAHGKERHLVARNTSRAGRTYYADSVKGRFTISRDNAKNTVYLQMNSLKPEDTAVYYCAADQSGFRWKWYIRYDYWGQGTQVTVSS,high polyreactivity
8,QVQLVESGGGLVQAGGSLRISCAASGTNNRTYAMGWYRQSTGKERDLVAAISKRGGSTYYADSVKGRFTISRDKAKNTVYLQMNSLKPEDTEVYYCAKKSTPGYGTSNDSWVQGTQVTVSS,high polyreactivity
9,QVQLVESGGGLVQAGGSLRISCAASVSTFWYYAMGWYIQAPRKERELVAPISRTGGGTYYADSVKGRFTISRDNAKNSVYLQMNSLKPEDTAVYYCARGSVYSDAQIYDYWGQGTQVTVSS,low polyreactivity
10,QVQLVESGGGLVQAGGSLRISCADSGITYSANAMGWYRQAPGKERELVAAITGSGGGTYYADSVKGRFTISRDNAKNTVYLQMNSLKPEDTAVYYCKADNYYYSGFDYWGQGTQVTVSS,low polyreactivity
11,QVQLVESGGGLVQAGGSLRISCAPSGFTFIYYDMGWYRQAPGKERELVAAINRGGNTYYADSVKGRFTISRDNAKNTVFLLMNSLKPEDTAVYYCNARSYRRGTWYNSWGQGTKVTVSS,high polyreactivity
12,QVQLVESGGGLVQAGGSLRISCAPSGIIFTDYAMGWYRQAPVKERELVAAISSGGGYTYYADSVKGRFTISRDNAKNTVYLQMISLKPEDTAVYYCAAEGYLISGAGDYLYDYYLGQGTQVTVSS,high polyreactivity
13,QVQLVESGGGLVQAGGSLRISCAPSGSTFYYNAIGWSRQAPGKERELVARISRSGGSTYADSVKGRFTISRDNAKNTVYLQMNSLKPEDTAVYYCNADAYGTPEFTSYAVRYDYWGQGTQVTVSS,low polyreactivity
14,QVQLVESGGGLVQAGGSLRISSAASGRTFGPYAIGWYRQAPGKESELVAAITSSGGSTYYADSVKGRFTISRDTAKNTFYLQMNSLKPEDTAVYYCNKLYWRESPDYDYWGQGTQVTVSS,low polyreactivity
15,QVQLVESGGGLVQAGGSLRISSAASGRTFQTNVMGWYRQAPGKERELVAAISKTGGRTYYADSVKGRFTISRDNAKNTVYLQMNSLNPEDTAVYYCAADSSGYEDYDYWGQGTQVTVSS,high polyreactivity
16,QVQLVESGGGLVQAGGSLRITCAASGSTFATYTIGWYRQPPGKEMELVAAISVSGSRTYADSVKGRFTISRDNAKNSVYLQMNSLKPEDTAVYYCAPRNYSVASYGEYDYWGQGTQVTVSS,high polyreactivity
17,QVQLVESGGGLVQAGGSLRKSCAASGIIFAYYALGCSRQAPGKERELGAAISSDGSTNYADSVKGRFTISRDNAKNSVYLQMNILKPVDTAVYYCAAKAYLYHWFEMYYWGQGTQVTVSS,high polyreactivity
18,QVQLVESGGGLVQAGGSLRKTCAASVRIFHYYAMGWYRQAPGKERELVAAINKSGGRTYYADSVKGRFTISRDNAKNTFYLQMNSLKPEDTAVYYCAAQDGYLGQGTQVTVSS,high polyreactivity
19,QVQLVESGGGLVQAGGSLRLALLPPDLPSTLNDMGLYRQAPGKERELVAAITRGGSTNYADSVKGRFTISRDNAKNTVYLQMNSLKPEDTADYYCAAPYAGWRDGGDYWGQGTQVTVSS,low polyreactivity
20,QVQLVESGGGLVQAGGSLRLCCAAAGSTFVYYAMGSYRAAPGNERELVAAIRNGDGTNYADSVKGRFTISRDNAKNTVYLQMNSLKPEDTAVYYCAAPQGEYFYVYEFDYWGQGTQVTVSS,low polyreactivity
